From US20210388087A1 (Chugai, published 2021)
Where a chain is given by its changes, count along the chain named. Names may count otherwise.

T1: Human CD3eg linker (human)
T1 construct: Single-chain construct; also called recombinant human CD3
T1 chain: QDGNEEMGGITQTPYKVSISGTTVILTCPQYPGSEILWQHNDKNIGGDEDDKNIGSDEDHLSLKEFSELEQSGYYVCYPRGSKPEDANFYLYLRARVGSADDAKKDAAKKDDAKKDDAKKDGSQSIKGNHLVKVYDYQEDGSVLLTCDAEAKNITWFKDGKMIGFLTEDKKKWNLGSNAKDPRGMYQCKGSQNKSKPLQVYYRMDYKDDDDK

B1: H183/L072 VL S26H (antibody, name in Kabat numbering, V domains shown)
VH: QVQLVESGGGLVQPGRSLRLSCAASGFTFSNAWMHWVRQAPGKGLEWVAQIKDKGNAYAAYYAPSVKGRFTISRDDSKNSIYLQMNSLKTEDTAVYYCHYVHYASASTVLPAFGVDAWGQGTTVTVSS
VL: DIVMTQSPLSLPVTPGEPASISCQAHQELVHMNRNTYLHWYQQKPGQAPRLLIYKVSNRFPGVPDRFSGSGSGTDFTLKISRVEAEDVGVYYCAQGTSVPFTFGQGTKLEIK
B2: H183/L072 VL S93E (antibody, name in Kabat numbering, V domains shown)
VH: B1 VH
VL: B1 VL with H26S, S98E
B3: H183/L072 VL S26V (antibody, name in Kabat numbering, V domains shown)
VH: B1 VH
VL: B1 VL with H26V
B4: H183/L072 VL S52V (antibody, name in Kabat numbering, V domains shown)
VH: B1 VH
VL: B1 VL with H26S, S57V
B5: H183/L072 VL S52H (antibody, name in Kabat numbering, V domains shown)
VH: B1 VH
VL: B1 VL with H26S, S57H
B6: H183/L072 VL S93M (antibody, name in Kabat numbering, V domains shown)
VH: B1 VH
VL: B1 VL with H26S, S98M
B7: H183/L072 VL S52E (antibody, name in Kabat numbering, V domains shown)
VH: B1 VH
VL: B1 VL with H26S, S57E
B8: H183/L072 VL S93G (antibody, name in Kabat numbering, V domains shown)
VH: B1 VH
VL: B1 VL with H26S, S98G
B9: H183/L072 VL S26L (antibody, name in Kabat numbering, V domains shown)
VH: B1 VH
VL: B1 VL with H26L
B10: H183/L072 VL S93I (antibody, name in Kabat numbering, V domains shown)
VH: B1 VH
VL: B1 VL with H26S, S98I
B11: H183/L072 VL S52F (antibody, name in Kabat numbering, V domains shown)
VH: B1 VH
VL: B1 VL with H26S, S57F
B12: H183/L072 VL S52Q (antibody, name in Kabat numbering, V domains shown)
VH: B1 VH
VL: B1 VL with H26S, S57Q
B13: H183/L072 VL S93A (antibody, name in Kabat numbering, V domains shown)
VH: B1 VH
VL: B1 VL with H26S, S98A
B14: H183/L072 VL S52M (antibody, name in Kabat numbering, V domains shown)
VH: B1 VH
VL: B1 VL with H26S, S57M
B15: H183/L072 VL S52G (antibody, name in Kabat numbering, V domains shown)
VH: B1 VH
VL: B1 VL with H26S, S57G
B16: H183/L072 VL S26P (antibody, name in Kabat numbering, V domains shown)
VH: B1 VH
VL: B1 VL with H26P
B17: H183/L072 VL S52K (antibody, name in Kabat numbering, V domains shown)
VH: B1 VH
VL: B1 VL with H26S, S57K
B18: H183/L072 VL S26I (antibody, name in Kabat numbering, V domains shown)
VH: B1 VH
VL: B1 VL with H26I
B19: H183/L072 VL S93K (antibody, name in Kabat numbering, V domains shown)
VH: B1 VH
VL: B1 VL with H26S, S98K
B20: H183/L072 VL S52D (antibody, name in Kabat numbering, V domains shown)
VH: B1 VH
VL: B1 VL with H26S, S57D
B21: H183/L072 VL S52R (antibody, name in Kabat numbering, V domains shown)
VH: B1 VH
VL: B1 VL with H26S, S57R
B22: H183/L072 VL S93R (antibody, name in Kabat numbering, V domains shown)
VH: B1 VH
VL: B1 VL with H26S, S98R
B23: H183/L072 VL S52N (antibody, name in Kabat numbering, V domains shown)
VH: B1 VH
VL: B1 VL with H26S, S57N
B24: H183/L072 VL S52I (antibody, name in Kabat numbering, V domains shown)
VH: B1 VH
VL: B1 VL with H26S, S57I
B25: H183/L072 VL S26N (antibody, name in Kabat numbering, V domains shown)
VH: B1 VH
VL: B1 VL with H26N
B26: H183/L072 VL S52A (antibody, name in Kabat numbering, V domains shown)
VH: B1 VH
VL: B1 VL with H26S, S57A
B27: H183/L072 VL S93T (antibody, name in Kabat numbering, V domains shown)
VH: B1 VH
VL: B1 VL with H26S, S98T
B28: H183/L072 VL S52L (antibody, name in Kabat numbering, V domains shown)
VH: B1 VH
VL: B1 VL with H26S, S57L
B29: H183/L072 VL S26Y (antibody, name in Kabat numbering, V domains shown)
VH: B1 VH
VL: B1 VL with H26Y
B30: H183/L072 VL S26R (antibody, name in Kabat numbering, V domains shown)
VH: B1 VH
VL: B1 VL with H26R
B31: H183/L072 VL S93L (antibody, name in Kabat numbering, V domains shown)
VH: B1 VH
VL: B1 VL with H26S, S98L
B32: H183/L072 VL S26K (antibody, name in Kabat numbering, V domains shown)
VH: B1 VH
VL: B1 VL with H26K
B33: H183/L072 VL S52T (antibody, name in Kabat numbering, V domains shown)
VH: B1 VH
VL: B1 VL with H26S, S57T
B34: H183/L072 VL S93F (antibody, name in Kabat numbering, V domains shown)
VH: B1 VH
VL: B1 VL with H26S, S98F
B35: H183/L072 VL S93Q (antibody, name in Kabat numbering, V domains shown)
VH: B1 VH
VL: B1 VL with H26S, S98Q
B36: H183/L072 VL S93H (antibody, name in Kabat numbering, V domains shown)
VH: B1 VH
VL: B1 VL with H26S, S98H
B37: H183/L072 VL S93V (antibody, name in Kabat numbering, V domains shown)
VH: B1 VH
VL: B1 VL with H26S, S98V
B38: H183/L072 VL S52W (antibody, name in Kabat numbering, V domains shown)
VH: B1 VH
VL: B1 VL with H26S, S57W
B39: H183/L072 VL S93W (antibody, name in Kabat numbering, V domains shown)
VH: B1 VH
VL: B1 VL with H26S, S98W
B40: H183/L072 VL S26Q (antibody, name in Kabat numbering, V domains shown)
VH: B1 VH
VL: B1 VL with H26Q
B41: H183/L072 VL S93N (antibody, name in Kabat numbering, V domains shown)
VH: B1 VH
VL: B1 VL with H26S, S98N
B42: H183/L072 VL S26M (antibody, name in Kabat numbering, V domains shown)
VH: B1 VH
VL: B1 VL with H26M
B43: H183/L072 VL S93D (antibody, name in Kabat numbering, V domains shown)
VH: B1 VH
VL: B1 VL with H26S, S98D
B44: H183/L072 VL S26T (antibody, name in Kabat numbering, V domains shown)
VH: B1 VH
VL: B1 VL with H26T
B45: H183/L072 VL S26W (antibody, name in Kabat numbering, V domains shown)
VH: B1 VH
VL: B1 VL with H26W

Biological target: T1, Human CD3eg linker
Experiment: SPR; fold vs parent H183/L072

fold change of affinity | Binder
0.4 fold | B1
1 fold | B2
0.6 fold | B3
1.6 fold | B4
1.7 fold | B5
1 fold | B6
1 fold | B7
0.8 fold | B8
0.5 fold | B9
0.8 fold | B10
1.6 fold | B11
1.4 fold | B12
1.1 fold | B13
1.4 fold | B14
1.4 fold | B15
0.2 fold | B16
1.9 fold | B17
0.5 fold | B18
1 fold | B19
1 fold | B20
1.8 fold | B21
1 fold | B22
1.5 fold | B23

fold change of affinity | Binder
1.5 fold | B24
0.9 fold | B25
1.2 fold | B26
1 fold | B27
1.6 fold | B28
0.4 fold | B29
0.5 fold | B30
0.9 fold | B31
0.7 fold | B32
1.3 fold | B33
1 fold | B34
1 fold | B35
0.9 fold | B36
0.7 fold | B37
1.4 fold | B38
1.1 fold | B39
0.8 fold | B40
0.8 fold | B41
0.6 fold | B42
0.7 fold | B43
1.4 fold | B44
0.3 fold | B45
